# In patent publication US20210107981A1 (SUTRO BIOPHARMA, published 2021):
# B1: h1E9-HC1 × h1E9-LC2 IgG (antibody)
# heavy: not shown
# light: MDIVLTQSPLSLPVTPGEPASISCRASESVDNSGISFMSWYLQKPGQSPQLLIYTASNQGSGVPDRFSGSGSGTDFTLKISRVEAEDVGVYYCQQSKEVPWTFGQGTKVEIKRTVAAPSVFIFPPSDEQLKSGTASVVCLLNNFYPREAKVQWKVDNALQSGNSQESVTEQDSKDSTYSLSSTLTLSKADYEKHKVYACEVTHQGLSSPVTKSFNRGEC
# notes: Humanized IgG; heavy chain with C-terminal FlagHis tag
# B2: h1E9-HC2 × h1E9-LC2 IgG (antibody)
# heavy: not shown
# light: B1 light
# notes: as for B1
# B3: h1E9-HC3 × h1E9-LC4 IgG (antibody)
# heavy: not shown
# light: MDIVLTQSPDSLAVSLGERATINCRASESVDNSGISFMSWYQQKPGQPPKLLIYTASNQGSGVPDRFSGSGSGTDFTLTISSLQAEDVAVYYCQQSKEVPWTFGQGTKVEIKRTVAAPSVFIFPPSDEQLKSGTASVVCLLNNFYPREAKVQWKVDNALQSGNSQESVTEQDSKDSTYSLSSTLTLSKADYEKHKVYACEVTHQGLSSPVTKSFNRGEC
# notes: as for B1
# B4: h1E9-5-IgG-HC-FLAG-HIS × h1E9-LC4 IgG (antibody)
# heavy: not shown
# light: B3 light
# notes: also called h1E9-5 HC × h1E9-LC4
# B5: h1E9-HC2 × h1E9-LC4 IgG (antibody)
# heavy: not shown
# light: B3 light
# notes: as for B1
# B6: h1E9-HC1 × h1E9-LC4 IgG (antibody)
# heavy: not shown
# light: B3 light
# notes: as for B1
# B7: 10B4 murine hybridoma IgG (antibody, V domains shown)
# VH: QVQLQQSGAELMKPGASVKMSCKTTGYIFSSYWIGWVKQRPGHGLEWIGKIFPGSGSADYNENFKGKATFTVDTSSNTAYMQLSSLTSEDSAVYYCARGYGNYLYFDVWGAGTTVTVSS
# VL: NIVMTQTPKFLLVSAGDRITITCKASQSVSDDVAWYQQKPGQSPKLLISYAFKRYIGVPDRFTGSGYGTDFTFTISTVQAEDLAVYFCQQNYNSPYTFGGGTKLELKR
# notes: Mouse IgG from hybridoma; also called m10B4
# B8: 1E9 murine hybridoma IgG (antibody, V domains shown)
# VH: EVKLVESGGGLVSPGGSLKLSCAASGFTFSTFGMSWVRQTPEKRLEWVATISGGGSDTYYPDSVQGRFIISRYNAKNNLYLQMNSLRPEDTALYYCARQGYDVYSWFAYWGQGTLVTVSA
# VL: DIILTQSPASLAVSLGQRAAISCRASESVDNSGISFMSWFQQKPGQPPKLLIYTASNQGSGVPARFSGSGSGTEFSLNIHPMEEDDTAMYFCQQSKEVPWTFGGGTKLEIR
# notes: Mouse IgG from hybridoma; also called m1E9
# B9: 1B10 murine hybridoma IgG (antibody, V domains shown)
# VH: DVQLQESGPGLVKPSQSLSLTCTVTGHSITSDYAWNWIRQFPGNKLEWMGYISYSGRTSYNPSLTSRISITRDTSKNQFFLQLNSVTTEDTATYYCARGYALDYWGQGTSVTVSS
# VL: QIVLSQSPAILSASPGEKVTMTCRTSSSVNYMHWFQQKPGSSPKPWIYATSKLASGVPARFSGSGSGTSYSLTISRVEAEDAATYFCQQWISDPWTFGGGTKLEIK
# notes: Mouse IgG from hybridoma; also called m1B10
# B10: 4B10 murine hybridoma IgG (antibody, V domains shown)
# VH: EVKLVESGGGLVKPGGSLKLSCAASGFTFSTYGMSWVRQTPEKRLQWVATISGGGSNTYYSDSVKGRFTISRDNAKNNLYLQMSSLRSEDTALYYCARQRDSAWFASWGQGTLVTVSA
# VL: not shown
# notes: Mouse IgG from hybridoma; also called m4B10
# B11: h1E9-5 IgG (antibody)
# heavy: not shown
# light: MEIVLTQSPATLSLSPGERATLSCRASESVDNSGISFMSWYQQKPGQAPRLLIYTASNQGSGIPARFSGSGSGTDFTLTISSLEPEDFAVYYCQQSKEVPWTFGQGTKVEIKRTVAAPSVFIFPPSDEQLKSGTASVVCLLNNFYPREAKVQWKVDNALQSGNSQESVTEQDSKDSTYSLSSTLTLSKADYEKHKVYACEVTHQGLSSPVTKSFNRGEC
# notes: Human IgG1; heavy chain with C-terminal FlagHis tag; made by cell-free expression; also called h1E9-5 human IgG1
# B12: h1E9-4 IgG (antibody)
# heavy: not shown
# light: MDIQLTQSPSFLSASVGDRVTITCRASESVDNSGISFMSWYQQKPGKAPKLLIYTASNQGSGVPSRFSGSGSGTEFTLTISSLQPEDFATYYCQQSKEVPWTFGQGTKVEIKRTVAAPSVFIFPPSDEQLKSGTASVVCLLNNFYPREAKVQWKVDNALQSGNSQESVTEQDSKDSTYSLSSTLTLSKADYEKHKVYACEVTHQGLSSPVTKSFNRGEC
# notes: Human IgG1; heavy chain with C-terminal FlagHis tag; made by cell-free expression; also called h1E9-4 human IgG1
# Biological target: T1, Human PD-1 (ACROBiosystems, Inc., Catalog No. PD1-H5221) (human, UniProt Q15116 25-167)
# T1 construct: Bought recombinant protein; also called huPD1-His; PD-1-his; not shown: His tag of the bought protein (huPD1-His)
# Assay: SPR (Biacore), IgG as ligand, PD-1-his as sample
# T1 sequence (Q15116 25-167 limits assumed): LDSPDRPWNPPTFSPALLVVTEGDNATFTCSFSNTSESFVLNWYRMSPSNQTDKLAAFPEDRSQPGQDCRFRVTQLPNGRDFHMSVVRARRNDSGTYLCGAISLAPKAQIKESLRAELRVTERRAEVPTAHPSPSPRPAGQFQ
row,Binder,Kd
1,B1,19 nM
2,B2,12.3 nM
3,B3,9.4 nM
4,B4,7.31 nM
5,B5,4.96 nM
6,B6,6.33 nM

# Biological target: T2, human PD-1 expressed on the cell surface (CHO-PD1 cells) (human, UniProt Q15116 25-288)
# T2 construct: Also used here as the target for native PD-1 on human PBMC / T cells in the functional (IFN-g) assays; also called CHO cell line overexpressing human PD-1; Cell-Surface Human PD-1 antigen
# Assay: cell-based FACS competition on CHO-PD1 cells; competitor rhPDL2-Fc
# Description: (§1) CHO-PD1 cells were cultured in RPMI with 10% FCS Pen/Strep and Gln and split every 3-4 days at 10⁵ cells/ml. Cells were washed 2× with FACS buffer (PBS w/2% FCS), […] at a final concentration of 1×10⁶ cells/ml and seeded at […] per well on 96 well polypropylene plates. Plates were spun at 1500 rpm for 5 minutes and cell pellets were suspended in 50 μL FACS buffer containing 8 point 1:3 dilutions (2× concentrated) of anti-PD-1 antibody variants, starting from high concentration of −200 nM. […] Cell were then incubated on ice for 1 hr, washed with FACS buffer and incubated for 1 hr on ice with 50 μl FACS buffer containing 2.5 μg/ml R-phycoerythrin-conjugated anti-human IgG (Jackson ImmunoResearch). Cells were then washed 2× with FACS buffer and fixed for 10 minutes in 200 μl PBS with 2% PFA prior to acquisition. Samples were acquired using a Becton Dickinson LSRII FACS.
# T2 sequence (Q15116 25-288 limits assumed): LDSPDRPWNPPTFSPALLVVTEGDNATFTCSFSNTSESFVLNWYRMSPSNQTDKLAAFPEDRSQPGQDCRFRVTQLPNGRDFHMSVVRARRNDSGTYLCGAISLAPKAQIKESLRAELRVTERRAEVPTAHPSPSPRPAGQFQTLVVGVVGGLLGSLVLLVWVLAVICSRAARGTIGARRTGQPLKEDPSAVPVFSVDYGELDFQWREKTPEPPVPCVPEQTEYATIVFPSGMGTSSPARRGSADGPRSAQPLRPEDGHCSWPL
row,Binder,IC50
1,B7,0.18 nM
2,B8,0.58 nM
3,B9,0.56 nM
4,B10,0.01 nM

# Biological target: T1, Human PD-1 (ACROBiosystems, Inc., …)
# Assay: competition ELISA on coated PD-1; competitor PD-L1-Fc (ACROBiosystems)
# Description: PD-1 (ACROBiosystems, Inc.) was adsorbed on 384-well white Maxisorp® plates (Nunc) at 2 μg/mL in sodium bicarbonate buffer (pH 8.9) and incubated at 30° C. for 1 hour or overnight at 4° C. The plate was washed 3 times with PBS pH 7.4 with 0.05% Tween20 and blocked with 2% bovine serum albumin (BSA) in PBS pH 7.4+0.1% Tween20 for 1 hour at 30° C.
# After a 1 hour incubation at 30° C., the plate was washed and incubated with HRP-conjugated anti-mouse Fc (Jackson Laboratories), followed by detection with SuperSignal™ Pico Chemiluminescent Substrate (Thermo Pierce). Luminescence was detected on a SpectraMax® M5 plate reader (Molecular Devices).
row,Binder,IC50
1,B7,1.32 nM
2,B8,0.89 nM
3,B9,9.47 nM
4,B10,1.43 nM

# Biological target: T1, Human PD-1 (ACROBiosystems, Inc., …)
# Assay: SPR (Biacore), IgG as ligand, PD-1-his as sample
# Remark: another data set of the same source
Binder,Kd,koff,kon
B11,19.4 nM,0.000471 s⁻¹,24300 M⁻¹ s⁻¹
B12,12.4 nM,0.000442 s⁻¹,35600 M⁻¹ s⁻¹

# Biological target: T2, human PD-1 expressed on the cell …
# Assay: FACS cell binding, CHO cell line overexpressing human PD-1
# Description: Antibodies with expression levels >250 nM and mouse IgGs from hybridomas were tested in a fluorescence-activated cell sorting (FACS) cell-binding assay. Chinese Hamster Ovary (or CHO) Cells stably expressing the human target molecule PD-1 on the cell surface (CHO-PD1) were used to screen for binding. Parental CHO cells were used as a negative control to determine background-binding levels. Parental CHO cells and CHO-PD1 cells were cultured in RPMI w/10% FCS penicillin/streptomycin (Pen/Strep) and glutamine (or Gln) and split every 3-4 days at 10⁵ cells/mL.
# (§2) A mix of parental CHO cells and CHO-PD1 cells was prepared as follows: Parental CHO cells were washed 2× in PBS then incubated in PBS containing 1 μM CellTrace™ Oregon Green488® (Life Technologies) at 37° C. for 30 minutes. Cells were then washed 2× with RPMI w/10% fetal calf serum (FCS), washed 2× with FACS buffer (PBS w/2% FCS), suspended thoroughly in ice-cold FACS buffer at a final concentration of 2×10⁶ cells/mL and kept on ice. CHO-PD1 cells were similarly washed with FACS buffer and kept on ice at 2×10⁶ cells/mL. Parental CHO cells and CHO-PD1 cells were then mixed to obtain a 1:1 cell suspension and seeded at 100 μL per well on 96 well polypropylene plates. Plates were spun at 1500 rpm for 5 minutes and cell pellets were suspended in 50 μL FACS buffer containing 6-12 point dilutions of anti-PD-1 variants starting from concentrations of −100-200 nM antibody, dispensed using BioMek FX (Beckman Coulter). Cells were then incubated on ice for 1 hr, washed with FACS buffer and incubated for 1 hr on ice with 50 μL FACS buffer containing 2.5 μg/ml R-phycoerythrin-conjugated goat anti-Human IgG (Jackson ImmunoResearch) or AF647-conjugated goat anti-mouse IgG (Life Technologies) dispensed using BioMek FX (Beckman Coulter). Cells were then washed 2× with FACS buffer and fixed for 10 minutes in 200 μL PBS with 2% paraformaldehyde (PFA) prior to fluorescence detection. Samples were acquired using a Becton Dickinson LSRII FACS. Mean Fluorescence Intensity of PD-1 antibody binding was analyzed using FlowJo® software (Tree Star, Inc.).
row,Binder,Kd
1,B7,1.34 nM
2,B8,2.9 nM
3,B9,3.2 nM
4,B10,1.39 nM

# Biological target: T2, human PD-1 expressed on the cell …
# Assay: FACS cell binding on CHO cells expressing human PD-1
# Description: as §2
# The affinity of the IgGs for cell-surface expressed human PD-1 were measured according to Example 6, above.
row,Binder,Kd
1,B1,12 nM
2,B2,11 nM
3,B3,9 nM
4,B4,14 nM
5,B5,4 nM
6,B6,8 nM

# Biological target: T2, human PD-1 expressed on the cell …
# Assay: cell-based FACS competition on CHO-PD1 cells; competitor rhPDL1-Fc
# Description: as §1
row,Binder,IC50
1,B7,2.53 nM
2,B8,5.86 nM
3,B9,5.96 nM
4,B10,1.99 nM

# Biological target: T1, Human PD-1 (ACROBiosystems, Inc., …)
# Assay: ELISA, binding of human PD-1 (coated)
row,Binder,EC50
1,B7,0.59 nM
2,B8,0.33 nM
3,B9,1.71 nM
4,B10,0.47 nM

# Biological target: T3, cynomolgus PD-1 expressed on CHO cells (cynomolgus, UniProt B0LAJ3 25-288)
# T3 construct: also called Cell-Surface Cynomolgus PD-1 antigen
# Assay: FACS cell binding on CHO cells expressing cynomolgus PD-1
# Description: as §2
# The affinity of the IgGs for cell-surface expressed cynomolgus PD-1 were measured according to Example 6, above.
# T3 sequence (B0LAJ3 entry or part of it limits assumed, form in doubt): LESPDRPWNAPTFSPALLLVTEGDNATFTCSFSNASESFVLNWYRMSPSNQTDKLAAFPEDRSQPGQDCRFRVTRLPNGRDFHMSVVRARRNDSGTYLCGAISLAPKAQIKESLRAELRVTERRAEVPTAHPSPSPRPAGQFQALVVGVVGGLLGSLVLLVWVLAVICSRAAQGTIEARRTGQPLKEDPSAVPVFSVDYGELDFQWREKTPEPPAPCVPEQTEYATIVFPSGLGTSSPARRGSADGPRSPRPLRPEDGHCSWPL
row,Binder,Kd
1,B1,19 nM
2,B2,9 nM
3,B3,5 nM
4,B4,12 nM
5,B5,6 nM
6,B6,11 nM

# Biological target: T1, Human PD-1 (ACROBiosystems, Inc., …)
# Assay: SPR (Biacore)
row,Binder,Kd
1,B7,0.252 nM
2,B8,9.9 nM
3,B9,10.4 nM
4,B10,0.913 nM

# Biological target: T4, cynomolgus PD-1 (ACROBiosystems, Inc., Catalog No. PD1-H5254) (cynomolgus, UniProt B0LAJ3 25-167)
# T4 construct: also called cyno PD-1
# Assay: SPR (Biacore)
# T4 sequence (B0LAJ3 entry or part of it limits assumed, form in doubt): as the sequence (Q15116 25-167 limits assumed) above, with D2E, P10A, V19L, T35A, Q75R counted along it
row,Binder,Kd
1,B7,0.195 nM
2,B8,2.54 nM
3,B9,2.56 nM
4,B10,0.561 nM
